Experimental findings from PMC3576809 are described below.

The target in this test is recombinant full-length kif2a, MBP fusion protein (Xenopus) (UniProt Q91637). Kind of test: pull-down; 1 µM MBP-kif2a added to stage 3 embryo cytoplasmic extract for 15 min, retrieved on amylose resin (15 min), washed with PBS with 0.01% Tween; importin α immunoblot quantified, normalized to kif2a intensity. A general note: Immunoblotting shows a protein as a band on a membrane.
Sequence of UniProt Q91637 (Q91637 whole entry, the tested form may be a part): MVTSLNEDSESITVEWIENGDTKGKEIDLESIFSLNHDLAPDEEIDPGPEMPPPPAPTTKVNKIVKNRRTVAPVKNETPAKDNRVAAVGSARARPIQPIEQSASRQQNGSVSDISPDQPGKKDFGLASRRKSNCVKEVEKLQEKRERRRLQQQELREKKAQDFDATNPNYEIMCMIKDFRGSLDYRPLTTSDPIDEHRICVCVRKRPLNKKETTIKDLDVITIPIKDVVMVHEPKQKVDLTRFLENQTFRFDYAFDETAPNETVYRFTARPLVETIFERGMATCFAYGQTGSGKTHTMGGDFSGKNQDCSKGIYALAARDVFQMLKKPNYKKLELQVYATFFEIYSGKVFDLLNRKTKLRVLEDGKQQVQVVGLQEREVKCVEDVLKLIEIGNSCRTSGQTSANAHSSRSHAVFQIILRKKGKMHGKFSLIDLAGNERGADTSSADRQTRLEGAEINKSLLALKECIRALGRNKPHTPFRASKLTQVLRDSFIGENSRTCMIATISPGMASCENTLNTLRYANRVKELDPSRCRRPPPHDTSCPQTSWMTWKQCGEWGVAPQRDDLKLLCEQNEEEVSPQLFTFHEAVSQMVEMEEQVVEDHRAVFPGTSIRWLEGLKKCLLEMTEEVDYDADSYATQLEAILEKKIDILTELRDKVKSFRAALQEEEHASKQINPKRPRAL

Consider “importin α (endogenous, Xenopus laevis egg and embryo extracts) (natural protein)”, for which the fold of importin α retrieved from stage 3 extracts against stage 8 extracts was found to be 10 fold.
